According to article PMC11647504, “The GPCR adaptor protein Norbin controls the trafficking of C5aR1 and CXCR4 in mouse neutrophils” (The Journal of Biological Chemistry, 2024):

T1: Recombinant His-Norbin (His-tagged rat Norbin protein) (rat, UniProt O35095 1-729)
T1 construct: Norbin (Neurochondrin), rat, full-length construct; 98% identical to human Norbin; also called Neurochondrin; NCDN; source: M15 [pREP4] bacteria, inclusion bodies solubilized in 6 M guanidine hydrochloride, renatured by dialysis, purified; not shown: 6xHis, C-terminal, kept
T1 sequence (looked up): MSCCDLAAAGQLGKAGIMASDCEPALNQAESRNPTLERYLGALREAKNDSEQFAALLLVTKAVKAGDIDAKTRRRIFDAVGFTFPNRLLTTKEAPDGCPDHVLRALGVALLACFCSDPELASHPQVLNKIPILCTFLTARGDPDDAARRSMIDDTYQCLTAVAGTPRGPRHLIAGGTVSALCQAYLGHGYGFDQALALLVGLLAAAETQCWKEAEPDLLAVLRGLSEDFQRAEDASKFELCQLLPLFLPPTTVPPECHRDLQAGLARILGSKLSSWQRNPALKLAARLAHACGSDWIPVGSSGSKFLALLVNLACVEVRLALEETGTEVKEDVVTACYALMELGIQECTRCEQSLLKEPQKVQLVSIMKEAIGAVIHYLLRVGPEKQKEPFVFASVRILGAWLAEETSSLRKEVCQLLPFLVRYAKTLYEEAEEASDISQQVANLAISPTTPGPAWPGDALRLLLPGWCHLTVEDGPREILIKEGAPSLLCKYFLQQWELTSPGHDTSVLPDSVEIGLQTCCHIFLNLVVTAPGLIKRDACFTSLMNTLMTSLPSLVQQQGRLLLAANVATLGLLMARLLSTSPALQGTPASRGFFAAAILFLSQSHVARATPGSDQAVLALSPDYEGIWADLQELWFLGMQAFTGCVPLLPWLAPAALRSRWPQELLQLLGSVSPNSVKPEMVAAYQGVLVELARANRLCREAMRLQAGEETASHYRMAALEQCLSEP


Molecular target: T1, Recombinant His-Norbin (His-tagged rat …)
Assay: pull-down; GST-tagged GPCR C-terminal tails (or GST) from bacterial lysates bound to glutathione Sepharose, washed twice in PBS, 2% Triton X-100, 5 mM DTT, incubated with 50 μg purified recombinant His-Norbin for 3 h at 4 °C, washed 3 x in PBS, 1% Triton X-100; western blot with His antibody
Details: both partners purified

| binding result | Binder |
| --- | --- |
| binds | GST-tagged C-terminal tail of human CXCR4 (domain or fragment, In pGEX6P1, cloned with BamH1 and Xho1; also called GST-CXCR4) FHCCLNPILYAFLGAKFKTSAQHALTSVSRGSSLKILSKGKRGGHSSVSTESESSSFHSS |
| binds | GST-tagged C-terminal tail of MCH1 (melanin-concentrating hormone receptor 1) (domain or fragment, In pGEX4T3; Positive control; also called GST-MCH1) ANSCLNPFVYIVLCETFRKRLVLSVKPAAQGQLRAVSNAQTADEERTESKGT |
| binds | GST-tagged C-terminal tail of human C5aR1 (domain or fragment, In pGEX4T3, cloned with BamH1 and Xho1; also called GST-C5aR1) INCCINPIIYVVAGQGFQGRLRKSLPSLLRNVLTEESVVRESKSFTRSTVDTMAQKTQAV |
